{
  "source": "the nanobody polyreactivity screen of Harvey et al. (2022)",
  "data": [
    {"test": "yeast display, Sf9 membrane polyspecificity reagent, FACS + sequencing; frameworks hold sequencing errors", "summary_of_the_method": "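Using colony PCR, genes from sorted yeast display clones were amplified, then sequenced on MiSeq at 2 × 250 and filtered by CDR length. The clones had been stained with 10% biotinylated, detergent-solubilized Sf9 membrane reagent for 1 hour at 4 °C and sorted by FACS into low and high (top ~1%) gates on anti-HA and streptavidin fluorescence. Polyreactivity labels come from the gate of origin.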", "values": [
      {"sequence": "QVQLVESGGGLVQAGGSLRLTCAASGRIFYQYALGWYRQAPGKERELVSSITTSGGNTYYADSVKVRFTISRDNAKNTVYLQMNSLKPEDTAVYYCASRFNWRQWLYEYWGQGTQVSVSS", "polyreactivity (PSR sort gate)": "low polyreactivity"},
      {"sequence": "QVQLVESGGGLVQAGGSLRLTCAASGRNFPAYVMGWYRQAPGKERELVAGITSASSTYYADSVKGRFTISRDNAKNTVYLQMNSLKPEDTAVYYCAAVGYSVRQRYDYWGQGSQVTVSS", "polyreactivity (PSR sort gate)": "high polyreactivity"},
      {"sequence": "QVQLVESGGGLVQAGGSLRLTCAASGRTFHAYVMGWYRQAPGKERELVADISSGGDTYADSVKGRFTISRDNAKNTVYLQMNSLKPEDTAVYYCAVDVIQDESGYWGQGTQVTVSS", "polyreactivity (PSR sort gate)": "low polyreactivity"},
      {"sequence": "QVQLVESGGGLVQAGGSLRLTCAASGRTFRKNAMGWYRQAPGKERELVAAITGSSGTTYYADSVKGRFTISRDNAKNTVYLQMNSLKPEDTAVYYCATTVGDPGRRYYYWGQGTQVTVSS", "polyreactivity (PSR sort gate)": "high polyreactivity"},
      {"sequence": "QVQLVESGGGLVQAGGSLRLTCAASGRTFRQYAMGWYRQAPGKERELVAAIRTNGGRTYYADSVKGRFTISRDYAKNTVYLQFNSLKPEDTAVYYCAVYAVVQGVLFDYWGQGTQVTVSS", "polyreactivity (PSR sort gate)": "high polyreactivity"},
      {"sequence": "QVQLVESGGGLVQAGGSLRLTCAASGRTFRRNAMGWYRPAPAKERELVAAITSGGGTYYADSVKGRFTISRDNAKNTVYLQMNSLKPEDTAVYYCNKKTSAGRVDYWGQGTQVTVSS", "polyreactivity (PSR sort gate)": "high polyreactivity"},
      {"sequence": "QVQLVESGGGLVQAGGSLRLTCAASGRTFYIYTMGWYRQAPGKERELVAAISSSGDSTYYADSVKGRFTISRDNAKYTVYLQMISLKPEDTAVYYCAAEYAYHHVGFGYWGQGTQVTVSS", "polyreactivity (PSR sort gate)": "low polyreactivity"},
      {"sequence": "QVQLVESGGGLVQAGGSLRLTCAASGRTFYYYAMGWYRKAPGKERELVAAIDSDGSTTYADSVKGRFTISRDNAKNTVYLQINSLKPEDTAVYYCAAAFPTYRHYYWGQGTQVTVSS", "polyreactivity (PSR sort gate)": "low polyreactivity"},
      {"sequence": "QVQLVESGGGLVQAGGSLRLTCAASGRTLAWYTMGWYRQAPGKERELVAAISGSGGSTYYADSVKGRFTISRDNAKNTVYFQINRLKPEDTAVYYCSLRVDSYYGHTRYYYWGQGTQVTLSS", "polyreactivity (PSR sort gate)": "high polyreactivity"},
      {"sequence": "QVQLVESGGGLVQAGGSLRLTCAASGRTLNPYAMGWYRQAPGKERELVAAITWRGGSTYYADSVKGRFTISRDNAKNTVYLQMNSLKPEDTAVYYCAAREYYYPYYYWGQGTQVTVSS", "polyreactivity (PSR sort gate)": "high polyreactivity"},
      {"sequence": "QVQLVESGGGLVQAGGSLRLTCAASGRTYNLYAMGWSRQAPGKERELVAAISSSTDSTYYAYSVKGRFTISRDNAKITVYLEMNSLKPEDTSVYYFAARRPSYPRYGYWGQGTQVTVSS", "polyreactivity (PSR sort gate)": "high polyreactivity"},
      {"sequence": "QVQLVESGGGLVQAGGSLRLTCAASGSIFEPYTKGWYRQAPAKERELVAAITGSGGSTFYADSVKARFTISRDNAKNTVYLQMNSLKPEDTAVYYCNANAYPYTDVDYWGQGTQVTVSS", "polyreactivity (PSR sort gate)": "low polyreactivity"},
      {"sequence": "QVQLVESGGGLVQAGGSLRLTCAASGSIFEYNGMGWYRQAPGKERELVAAITTTGTTDYADSVKGRFTISRDNAKNTVYLQMNSLKPEDTAVDYCAAEYTYYYTGEYDYWGQGTQVTVSS", "polyreactivity (PSR sort gate)": "low polyreactivity"},
      {"sequence": "QVQLVESGGGLVQAGGSLRLTCAASGSIFISYHMGWYRQAPGKERELVAAIRSRVGSTYYSDSVKGRFTISRDNAKNPVYFQMNCLKPEDPAVYYCAAERSFSRFTTYDYWGQGTQVTVSS", "polyreactivity (PSR sort gate)": "low polyreactivity"},
      {"sequence": "QVQLVESGGGLVQAGGSLRLTCAASGSIFSTNAMGWYRQAPGKERELVATITSGGRTYYADSVKGRFTISRDNAKNTVYLQMNSLKPEDTAVYYCARVPPKYRWGRRLVYVHVDYWGQGTQVTVSS", "polyreactivity (PSR sort gate)": "low polyreactivity"},
      {"sequence": "QVQLVESGGGLVQAGGSLRLTCAASGSIFTGNTMGWYRQATGKERELVAAITGSGGRTYYADSVKGRFTISRDNAKNTVYLQMNSLKPEDTAVYYCAADRSYYPDTRTTYGYNYWGQGTQVTVSS", "polyreactivity (PSR sort gate)": "low polyreactivity"},
      {"sequence": "QVQLVESGGGLVQAGGSLRLTCAASGSIFYVNAMGWYRQAPGKERESVAGITGSGSRTYYADSVKGRFTISRDNAKNTVYLQMNSLKPEDTAVYYCARLTRTSRGLYDYWGQGTQVTVSS", "polyreactivity (PSR sort gate)": "high polyreactivity"},
      {"sequence": "QVQLVESGGGLVQAGGSLRLTCAASGSIIYTNGMGWYRQAPAKERELVAAISVSGGSTYYADSVKGRFTITRDNEKNTVYLQMNSLKPEDTAVYFCNAKDWYFYRYDYWGQGTQVTVSS", "polyreactivity (PSR sort gate)": "low polyreactivity"},
      {"sequence": "QVQLVESGGGLVQAGGSLRLTCAASGSTDPYAMGWYRQAPGKERELVARIRYSGGSTYYADSVKGRCTISRDNAKNTVYFQMTSLKPEDTAVYYCAAQSYTYYHHYGYWGQGTQVTVSS", "polyreactivity (PSR sort gate)": "high polyreactivity"},
      {"sequence": "QVQLVESGGGLVQAGGSLRLTCAASGSTFAYYAMRWYRQAPGTERELVAVINGITGSTYYADSVKGRFTISRDHAKNTVYLQMNSLKPEDTAVYYCNADYAVVTDEGDYWGQGTQVTVSS", "polyreactivity (PSR sort gate)": "low polyreactivity"},
      {"sequence": "QVQLVESGGGLVQAGGSLRLTCAASGSTFGDNAMGWYRQAPGKEREFVATISWDTGTTYYADSVKGRFTISRDNAKNTVYLHMNSLKQEDTAVYYCNVQSYAEFGYWGQGTQVTVSS", "polyreactivity (PSR sort gate)": "low polyreactivity"},
      {"sequence": "QVQLVESGGGLVQAGGSLRLTCAASGSTFGLNAMGWYRQAPAKERELVAAITSRGTRTYYADSVKGRFTISRDNAKNTVYLQMNSLKPEDTAVYYCGKDSGATRYGEYDYWGQGTQVTVSS", "polyreactivity (PSR sort gate)": "low polyreactivity"},
      {"sequence": "QVQLVESGGGLVQAGGSLRLTCAASGSTFISYAMGWYRPAPGKERELVAAISRRGDSTYYADSVKGRFTISRDNAKYTVYLQMKSLKPEDTAVYYCAADSYPAYLGFVGFDYWRQGTQVTVSS", "polyreactivity (PSR sort gate)": "low polyreactivity"},
      {"sequence": "QVQLVESGGGLVQAGGSLRLTCAASGSTFRLNAIGWYRQAPGKERELVAAISRSTGTTHYADSVKGRFTISRDNAKHTVYLQMNSLIPEDTAVYYCAAQGGDGVLALYYYWGQGTQVTVSS", "polyreactivity (PSR sort gate)": "low polyreactivity"},
      {"sequence": "QVQLVESGGGLVQAGGSLRLTCAASGSTFRLYAMGWYRQAPGKERELVAGISRTGTSTYYADSVKGRFTISRDNAKTTVFLQMNSLKPEDTAVYYCAASIGGGSYWGQGTQLTVSS", "polyreactivity (PSR sort gate)": "high polyreactivity"},
      {"sequence": "QVQLVESGGGLVQAGGSLRLTCAASGSTFRWYAMGWYRPAPGKERELVAVITSGASTNYADSVKGRFTISRDNAKNTVYLQMNSLKPEDTAVYYCNRVPYFRWKYGYWGQGTQVTVSS", "polyreactivity (PSR sort gate)": "high polyreactivity"},
      {"sequence": "QVQLVESGGGLVQAGGSLRLTCAASGSTFSSYGMGWYRQAPGKERELVASITIRGGSTYYADSVKGRFTISRDNAKNTVYLQMNSLKPEDTAVYYCAADVTNRGTWVIYGYYYWGQGTQVTVSS", "polyreactivity (PSR sort gate)": "low polyreactivity"},
      {"sequence": "QVQLVESGGGLVQAGGSLRLTCAASGSTFTAYAMGWYRQAPGKDLELVDAINWSGGTTYYADSVKGRFTISRDNAKNTVYLQMNSLKPEDTAVYYCPVDGNFFGEVRPYDYWGQGTQVTLSS", "polyreactivity (PSR sort gate)": "low polyreactivity"},
      {"sequence": "QVQLVESGGGLVQAGGSLRLTCAASGSTFTYNGMGWYRQAPGKERELVAAITKRGGSTYYADSVKGRFTISRDNAKNTVYLQMNSLKPEETAVYYCAKPAASGFRWDSGYWGQGTQVTLSS", "polyreactivity (PSR sort gate)": "high polyreactivity"},
      {"sequence": "QVQLVESGGGLVQAGGSLRLTCAASGSTFTYYAMGWYRQAPGKERDLVAAITSSDGSTYYADSVKGRFTISRDNAKNTVYLQMNSLKPEDTAVYYCAADNYVDFYDEYDYWGQGTQVTVSS", "polyreactivity (PSR sort gate)": "low polyreactivity"},
      {"sequence": "QVQLVESGGGLVQAGGSLRLTCAASGSTFWDNTMGWYRQAPGKDRELVAGITGGGNTKYADSVKGRFTISRDNAKNTVYLQMNSLKPEDTAVYYCAAERLRGYRGVRGYYGYYYWGQGTQVTVSS", "polyreactivity (PSR sort gate)": "high polyreactivity"},
      {"sequence": "QVQLVESGGGLVQAGGSLRLTCAASGSTFWSYGMGWYRPAPGKERELVAAITRGGSTYYADSVKGRFTISRDNAKNTVYLQMNSLIPEDTAVYYCAAGISVRWSPSYYYWGQGTQVTVSS", "polyreactivity (PSR sort gate)": "high polyreactivity"},
      {"sequence": "QVQLVESGGGLVQAGGSLRLTCAASGSTIGGNPMVCYRHAPGKERELVAAITFSGGSTSYADSVKGRFTISRDNAKNTVYLQMNSLKPEDTAVYYCAASWVYPYDYWRQGTQVTVSS", "polyreactivity (PSR sort gate)": "low polyreactivity"},
      {"sequence": "QVQLVESGGGLVQAGGSLRLTCAASGSTLNYYAMGWYRQAPGKERELVAAIRSGGNTNYADSVKGRFTISRDNAKNTVYLQMNSLKPEDTAVYYCAKDESYFYDRVPLDYWGQGTQVTVSS", "polyreactivity (PSR sort gate)": "low polyreactivity"},
      {"sequence": "QVQLVESGGGLVQAGGSLRLTCAASGSTLSTYVMGWYRQAPGKERELVAAITRRGGITYYADSVKGRFTISRDNAKNTVYLQMNSLKPEDTAVYYCAATGVRSKRLASQWKLYYWGQGTQVTVSS", "polyreactivity (PSR sort gate)": "high polyreactivity"},
      {"sequence": "QVQLVESGGGLVQAGGSLRLTCAASGSTLYWKAMGWYRQAPGKERELVASITSSGGSTYYADSVKGRFTISRDNAKNTVYLQMNSLKPEDTAVYDCATESWWRYSEYYYWGQGSQVTVSS", "polyreactivity (PSR sort gate)": "low polyreactivity"},
      {"sequence": "QVQLVESGGGLVQAGGSLRLTCAASGSTSYPYAMGWYRQEPGKERELVATITSGGRTNYADSVKGRFTISRDNAKNTVYLQMHSLKPEDTAVYYCNARFYRWRSYGYDYWGQGTQVTVSS", "polyreactivity (PSR sort gate)": "high polyreactivity"},
      {"sequence": "QVQLVESGGGLVQAGGSLRLTCAASGYIFNRNAMGWYRQAPGKERELVAAISGSGAVTYYADSVKGRFTISRDNAKNTVYFQMNSLKPEDTAVYYCAKKLYWREGRYDYWGQGTQVTVSS", "polyreactivity (PSR sort gate)": "high polyreactivity"},
      {"sequence": "QVQLVESGGGLVQAGGSLRLTCAASGYTFGHYAMGWYRQAPGKERELVAVITSGGSTNYADSVKGRFTISRDNAKNTVYLQMNSLKPEDTAVYYCAADLYFYYVWIRDYWGQGTQVTVSS", "polyreactivity (PSR sort gate)": "low polyreactivity"},
      {"sequence": "QVQLVESGGGLVQAGGSLRLTCAASGYTFGKYAMGWYREAPGKERELVATIRSGGSTNYADSLKGRFTISRDNAKNTVYLQMNSLKPEDTAVYYCNKRYRYEYGYDYWGQGTLVTVSS", "polyreactivity (PSR sort gate)": "high polyreactivity"},
      {"sequence": "QVQLVESGGGLVQAGGSLRLTCAASGYTFVIYSMVWYRQAPGKVRELVAAITTIGGRTYYADSVKGRFTISRDNAKNTVYLQMNSLKPEDTAVYYCAADIRSNRLYDGGYWRQGTQVTVSS", "polyreactivity (PSR sort gate)": "low polyreactivity"},
      {"sequence": "QVQLVESGGGLVQAGGSLRLTCAASGYTFYSYAMGWYRQAPGKERELVAAIRTGGGTNYADSVKGRFTISRDNAMNTVYLQMNSLKPEDTAVYYCAADSFDPAGHVDYWGQGTQVTVSS", "polyreactivity (PSR sort gate)": "low polyreactivity"},
      {"sequence": "QVQLVESGGGLVQAGGSLRLTCAASRRIFSYYAMGDYIQATGKERELVADINWSGGSTYYADSVKGRFTISRDNAKNTFYLQMNSLKPEDTAVYYCAVDWTSAYGTYYYTPYDSWGQGTQVTVSS", "polyreactivity (PSR sort gate)": "low polyreactivity"}
    ]}
  ]
}
